{"source": "paper PMC2882252", "about": "(Journal of the American Chemical Society, 2009)", "molecules": {"B1": {"name": "glutamate racemase (RacE) (Bacillus subtilis subsp. subtilis str. 168) (protein)", "chain": "MLEQPIGVIDSGVGGLTVAKEIMRQLPKENIIYVGDTKRCPYGPRPEEEVLQYTWELTNYLLENHHIKMLVIACNTATAIALDDIQRSVGIPVVGVIQPGARAAIKVTDNQHIGVIGTENTIKSNAYEEALLALNPDLKVENLACPLLVPFVESGKFLDKTADEIVKTSLYPLKDTSIDSLILGCTHYPILKEAIQRYMGEHVNIISSGDETAREVSTILSYKGLLNQSPIAPDHQFLTTGARDQFAKIADDWFGHEVGHVECISLQEPIKR"}}, "key": {"[1]": {"target": "glutamate racemase (RacE) (Bacillus subtilis, UniProt P94556)", "assay_type": "biochemical"}, "[2]": {"test_system": "N[C@H](CCC(=O)O)C(=O)O", "experiment": "purified protein", "assay_type": "biochemical, Bacillus subtilis", "details": "active site"}, "[3]": {"substrate": "N[C@@H](CCC(=O)O)C(=O)O", "experiment": "purified protein", "details": "active site, between Cys74 and Cys185"}}}
{"molecule": "O=C(O)c1cccc(C(=O)O)n1", "note": "[DPA, 2,6-pyridinedicarboxylic acid]", "values": [{"measurement": "Ki", "setting": "[1]", "value": "1.97 ± 1.16", "unit": "mM"}]}
{"molecule": "glutamate racemase (RacE) T76A (Bacillus subtilis subsp. subtilis str. 168; T76A)", "values": [{"measurement": "Km", "setting": "[2]", "value": "8.6 ± 1.4", "unit": "mM"}]}
{"molecule": "B1", "values": [{"measurement": "Km", "setting": "[3]", "value": "14 ± 6", "unit": "mM"}]}
